Drawing on PMC2722981, this text covers Kd for 1 molecule.

Usually Kd stands for a measure of binding affinity in units of concentration.

This series concerns the target PCBP1 KH1/2 (mouse, UniProt P60335 13-170). Description: filter binding.

Sequence of PCBP1 KH1/2 (P60335 13-170): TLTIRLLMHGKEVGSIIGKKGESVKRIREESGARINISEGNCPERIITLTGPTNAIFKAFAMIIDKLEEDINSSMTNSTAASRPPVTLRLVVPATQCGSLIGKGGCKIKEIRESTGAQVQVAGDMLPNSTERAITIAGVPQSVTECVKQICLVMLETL

B1: R7a1 (structured_RNA)
RNA: GGAGUGACCUUCUCAACUUUAUAUUCCCUUUACCCCUUCCCCCAAGGCACU
As to B1, binding was characterised by a dissociation constant (Kd) of 42.3 ± 12 nM.
